Assay results published in the DeepSol protein solubility set.

Experiment: soluble on expression in E. coli; label from the status in PepcDB or PDB records

Soluble on expression in E. coli, not soluble:
MGSDKIHHHHHHMFQSDLKLIVFQHGFFGERFVANLMNYPNSCPSYGACGIDGCTQCKEGLYNFSKNIIAVFSMPDPTTMPDFIENAEDFLPKVIPEADIAVAINLHPDVLAVMPEKLKGKVKALIVPVEEPRWCSPGLAKQIREKCDELGLEFAAPKPFCNLRPSEEHPTINRMIEEMRIGYPEFEIELLEDGKAYVRISRSQPCGCAYYIGVKLRGFDFSEVKEGKMRELWNVVAEAHHSYPCTASMERDNEYNETLLHVGGYIARHAVNRALGYEGDEDIPEHIKHIVL
MGSDKIHHHHHHMFRILTINPGSTSTKLSIFEDERMVKMQNFSHSPDELGRFQKILDQLEFREKIARQFVEETGYSLSSFSAFVSRGGLLDPIPGGVYLVDGLMIKTLKSGKNGEHASNLGAIIAHRFSSETGVPAYVVDPVVVDEMEDVARVSGHPNYQRKSIFHALNQKTVAKEVARMMNKRYEEMNLVVAHMGGGISIAAHRKGRVIDVNNALDGDGPFTPERSGTLPLTQLVDLCFSGKFTYEEMKKRIVGNGGLVAYLGTSDAREVVRRIKQGDEWAKRVYRAMAYQIAKWIGKMAAVLKGEVDFIVLTGGLAHEKEFLVPWITKRVSFIAPVLVFPGSNEEKALALSALRVLRGEEKPKNYSEESRRWRERYDSYLDGILR
MGSDKIHHHHHHMFRTVALTGATGFIGRVLIAKLAASGWKVRALARRVPFRQDLPLVEWICGDMNCDSVLCDLVSGTEAVIHCAGAIRGKSWDDFSRTNVTGTRNILRAASGAPSCSRFLFISSLAAREPHLSWYARSKFEAEQLIPGFSGLASTVFRPAAVYGLGDKAMQPFFQAMRYGILLVPGDPGNRFGLIHVDDMVAAIHNWLEAGQPVKGTYEIDDGTSGGYDYTSIAALAEQVLSRPVHCLQIPLGGIRMLARFNLWLAHLLNYAPILTPGKVMEFQHPDWTCDISSLKRELAGWSPVTKLETVLPLLVRM
MGSDKIHHHHHHMFSGIAHCADCGSKLYYCTTRYFETRHDHFRCSASQKAVDPCTSHFIRAVVLEEMVLAHMRYVIGFVQRYEDSFRVSIEAERSTEIQKELSAKRKQIAQSQKRVDDLDVLFRKVYEDNASGKLTDERFMQLSRGYDLEQKTLRQMITMLEKEIDQQEQKTTQVEDFIAKCKRYSSLETLTPAILNDLVIKVFVEAPDKSTGKRRQGIHISYNLVGILPPLERFQPVVVERPNKEKAETA
MGSDKIHHHHHHMFVSPMLLHSIKEPFNDENYITELKFDGIRLILSKFDNQIKLYTRHNNEVTSKFPELMDLDIPDGTVLDGEVIVAASGGAPDFEAVMERFMSKKSAHNIVYCVFDVIYKDGQSIAAKPLTERKTVLNSLELDHPNVFVIEGTQGNGLAYFNLAKEKNLEGIVIKKANSPYEINKRSHNWLKVINYDYTEVLITGYTKKDIKFLLSYPDGTSAGFMEFMPHAERTKFHSMKQVKSESDEYVFIEPILCNVKHRFKTKHGKLRIPSFESWRV
MGSDKIHHHHHHMFYRPEDGHGLPHNPFNAVVTPRPIGWISTRSGAGVNNLAPYSFFNAVAYVPPQVMFASTSTKDDQDGTKDSIANIRETGVFCVNVVEYAMRDAMNKTSAALDKGIDEFAHAGLEAVPCETIDCARVAGVPAALECRLTQIVDLPGEANKVAFGEVVGVHLRDDCLVDGVFDVTRYQPLSRLGYRDYAKVSDPFSLSRPDD
MGSDKIHHHHHHMGETNQQGVKNPLQTKEVAERQAKKEKQVVFIYYDHEPTYKLLEDQLVDQGDFELVSTNQSEDAVAILGSLSIDSVVFINTAKSKQMYQLYEKTSGSHHYLHAPFFYIGECSHEEMGQIFANGHEFISSPFNLETFYLKMKAKLDHCTRIKNDRQIDLVTQLYTERFLEKMFHLQVANLVRFKTSFTVIFLSLYNYYELKTKYGLTIADQIVATVSDYIKSQVRDSDLAFRMDAEDEIAVILPNGGQTEAGYFVRRVFEHIPPVTTTENGEPLQFFIELSASIVEINNADVTYEEMLEKGKEALQEAVFKGASTIETVNDFQEPNVEKIKVTVIVEDQVIRSVLVNLLQRLTLEYFELDVQTFFDGEALLESSWHRSAHTHIVIMDDVLPKRNGLEMVHELRKMPNNEKYIVMMLSNRKTEEDVTYAFEMGVDDYITKPFNVKFVESRLKRYLKRLR
MGSDKIHHHHHHMGHATEIQVLVVDESAPSRAFIASTLENGGYIVTSVASGEEAVHEVNAAPFDILVTDINLPGMSGLNLLKLLKDSFPDLEVVIVTSNASSFTAIKALRLGAYDFIIKPVDDPAILTNIVGRAVEKQSLTRENRRLMDDMKLKNRELHDALHLMKSANRLCTAISASLDAGEILKRLVEGAVEEVKAKKGYLLLLDRDGSSFSMKVSVGVSRTLAKGFRLRHDQGIAGLVATNNKPLRIDEEVPPPLTHRMLEEDPNGELFTTPGIVTVPLQFKGRVAGVVTLSGRADGRAFTDAEIEFLTTLANHSAIALDTAGAFYKLRKGTS
MGSDKIHHHHHHMGINKFNHEGYHDPTPHEALTNIMKKEKAEKKSAFKPLVYICSPYSGDVEGNIKKARSFCRFALDQNCIPIAPHLMFPQFMDDENPEERELAIFMDIVLMGKCSEVWVLGNTISTGMAREIEVAKKRRQTVRYFSPEHEEVESL
MGSDKIHHHHHHMGLSTSTKTFAERLEESKKDQFAKAAVAKAQDAQWEKRESARDELGNWQEWRDIAESIRQHTLKYLPHYLTEFSDNVAARGGHVFFAADAKEANDYVKRIVLEKNAKKIVKSKSMVTTEVDIDPMLVSLSDDMDILETDLAEFILQVADWDEPSHIVFPALHKNRDQIREIFAKKLGYEGDNNPVNLARCARDTMRKLFLKSEVGITGCNFAIANTGDINLSTNEGNADLTISIPKTQIVLMGMERIVPSIKEAEILDNMLARSAVGQKLTTYVTFAGQQADDESDGPEDFHVVIVDNGRSNAIGTAFEAVLQCIRCGACLNVCPVYRQIGGHAYGSIYPGPIGSVLSPVLGGYEQYGDLPYASTLCGACTETCPVKIPLHELLIEHRKVMEDDLSMHHDGSFVNFEMNTIGKGTSSPALFGMAINMAHTGLNMLPKAKEVSVEGSLFNYGAVRKAPALAKGWTDVRDLPIAPPHKEQFRQWYKKHKAGK
MGSDKIHHHHHHMGNKIYPIGIQNFESLRLDGYFYIDKTALIYQLVKSGRYYFLSRPRRFGKSLLISTLEAYFQGKKELFQGLAMEKLEKDWTKYPILHIDLNTQKYDSPQSLESKLNRTLVTWEKLYGSEPAEDSLSMRFEGTIQRAYEQTGQRVVILVDEYDKPMLQAIGNKELQNSFRETLKAFYGALKSKDGCIKFAMLTGVTKFGKVSVFSDLNNLDDISMWNEYIELCGISEKEIHKNLETELHEFADVQKMTYDSFCEKLRQYYDGYHFTHNSIGMYNPFSLLNAFKRKEFGSYWFETGTPTYLVELLKRHHYNLERMAHEETNAQVLNSIDSESTSPIPVIYQSGYLTIKGYDEEFGIYHLGFPNKEVEEGFIQFLVPYYTSMNNVESPFEI
MGSDKIHHHHHHMGNSVLKMMIDAGPIMRTVSLPRGRHSLHTMPTSTGYEVRSDATYDWDGRKRGQTPFTVLQHTISGAGNLRYENSTYRVTPGQTLLVLVPHNHRYWLEPGGRWEFFWISMNGEEALRIHNAILTAMGPIFNLNQQTVEHLADCSQRLIAGGAETPGRASAIAYEAAMALYDDVFGSHPTLSAEYRTMQHVIDHISANLDQSLSVEQLAAVSGLSRAHFSRVFAASEGMPPAEFVLHKRLKRAVKLLTKGSHLSVKEISTMCGFEEPNYFSKVFRRHFGASPTEFRTTGMYSSILQGGVEAETKPARFHRPDVNE
MGSDKIHHHHHHMGQRIPVTLGNIAPLAVKPFRPGKLALVCEGGGQRGIFTAGVLDEFMRAGFNPFDLMLGTSAGAQNLSAYMCNQQGYARKVITRYTTSRQFFDPMRFVRGGNLIDLDWLVEATSQQMPLAMNYAEAQFALGKELWLCACRGDDYSASYFSPTPQTWLDLIRASSAIPGFYRSGVLLDGVSYLDGGVSDAIPVQEAARRGAQTIVVIRTVPSQMFYTPQWFKRMERWLGESSLQPLVNLVHHHETTYRAIQQFIEKPPGKLRIFEIYPQRPLRSMALGSRLPALLEDYKTGRQCGRYFLATVGKLLADQPPLLRHAPRIARPAPVVVPPVPVANEAPQATIIPAPQANDPSFDHEDLA
MGSDKIHHHHHHMGREIFNRRLPDNYNDFSHSMDNAANGHYFLRVASSNYKRPDGKNVRTVRDVIAEVDQNGVVVDEWRLFDILDPYRDVIMKTLDQGAVCLNIDASQSGHTLSEEDLAALDSSDKFGDIVGSGAGRNWAHVNSVDYDSEDDSIIISSRHQSAIIKIGRDKKVKWILGTPAGWKAPFNAAILTPVDSKGQKIACQDSGCEGDFDWTWTQHTAFKIDSKSKGDILYLSAFDNGDGRGLEQPAMQSMKYSRSVIYKIDQKNKTVQQIWQYGKERGNEWFSPVTSITEYQTDKNSVFVYSATAGGAFDLSVGAFTSLPNPYLEEFKWGEKEPAVEMQIHGARGYQAMPFSLTKALTE
MGSDKIHHHHHHMGSLEQRRLEQDKRPDDVRDEYDRDEARLIHSAAFRRLQSKTQVLGLGESDFYRTRLTHSMEVAQIGRGIVQYLSKNKKFAEYHEHLPNTSLITAICLAHDIGHPPFGHGGEVALNYCMREHGGFEGNGQTLRILGKLDKYTGEHGLNPTRRMLLGILKYPVAYSELVNEKAYEQVPDKNAPYWLFEARMQKPPKCYHDCDQEIVDFIFDGFAREELAKFTQTEQPIDKDEPEKPLHKKSLYKSLDCTIMNLADNISYSLHDFEDALSLGMITQRHWREHFEGKEALFNDLAKQLVRNDLNFDLITVNLFHKESHCRKEAIGSLVNLMITNAIIEKNQSGCENPLLSLEVKLAPQIEKLRQHIFDLVCEQVIFDENVQQLEFKGQKLVIELFQTLAKDPNRFLPKPTRERLKKAGEGLEGEHKKSAQLRVICDFVSGMTDDYATKFYEKLFTPSKGSIFDRL
MGSDKIHHHHHHMGTDSEKAIPPKVSRAAAEWLVELHSGQVGKEVREQWQAWRAAHPDHERAWQHIEMLGERLGGLSSSLAHATMAPRGSLRRRRAIKTLAMLLFAGGSAWVVQEKTPWWQLSADYSTGIGEQRRIELEDGTVVDLNSSSAINVAYTQQQRILMLLRGEMHVATASESATARPFLIASDQGSVRAFGTRFVVRQLTNEKDSPIKVGVLEGAVEVAPSEMPARVRLQAGEQLSFTRHMVTPIEPVIPHDTAWLQRMLVADDMPLGEFLAELSRYRKGSLGCDHSIKHLKVSGTYPLDDTDKVIEMLQQSLNLQVRMLTRYWVRLMPPAA
MGSDKIHHHHHHMGVDPFERNKILGRGINIGNALEAPNEGDWGVVIKDEFFDIIKEAGFSHVRIPIRWSTHAYAFPPYKIMDRFFKRVDEVINGALKRGLAVVINIHHYEELMNDPEEHKERFLALWKQIADRYKDYPETLFFEILNEPHGNLTPEKWNELLEEALKVIRSIDKKHTIIIGTAEWGGISALEKLSVPKWEKNSIVTIHYYNPFEFTHQGAEWVEGSEKWLGRKWGSPDDQKHLIEEFNFIEEWSKKNKRPIYIGEFGAYRKADLESRIKWTSFVVREMEKRRWSWAYWEFCSGFGVYDTLRKTWNKDLLEALIGGDSIE
MGSDKIHHHHHHMGVIQKIKNLVTRSKYVMTTQSLTNITDHPKIAISKLEYDRITTNLKYYKSDWDSVLYLNTDGETKKRDLNHLPIARTAAKKIASLVFNEQAEIKVDDDAANEFISETLKNDRFNKNFERYLESCLALGGLAMRPYVDGDKVRVAFVQAPVFLPLQSNTQDVSSAAVVIKSVKTINGKEVYYTLIEFHEWQSSDDYVISNELYRSDDKAKVGSRVPLSEVYKDLKDEAKVTDVTRPIFTYLKTPGMNNKDINSPLGLSIFDNAKTTIDFINTTYDEFMWEVKMGQRRVAVPESLTALTVRTADGDVVPRPRFESDQNVYIRMGGRDLDSSAIQDLTTPIRADDYIKAINEGLSLFEMQIGVSAGLFSFDGKSMKTATEIVSENSDTYQMRNSIVTLVEQSLKELVISIFEIAKAYDLYQSEVPSMDNISISLDDGVFTDRDAELDYWIKVVNAGFGTREMAIQKVLNVTEEKAQEIAAEINTGIVDEINQQRTDTHLYGE
